A short description of this series: soluble fraction after stress (log2 fold change); higher = more stays soluble; pooled small domains, quantitative proteomics. As to conditions: stress: pH 4. The method, boiled down: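 Pooled custom libraries of small protein domains were stressed at pH 4 and then measured by high-throughput quantitative proteomics. The fold change in the amount of each domain that stays soluble after the acid stress serves as a measure of aggregation propensity. Fold changes are given on a log2 scale, and higher values mean more of the domain stayed soluble.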

Turning to “HMDKSHYEELGVSRTATHAEIRRAYRHLMRTLHPDSNDGRVDAVRITKVNEAWNVLSQSSSRNAYDKSQV”, the “soluble fraction (log2)” value was -0.0249.
For “HMDKTTIKNEQKKQILIFAEMNLFFKAKDVAELLGLQASRARYLLQELVKDGKIQGIGNNKGRKYQLI” the value was -0.591; for “HMDKVEQLMQNPVIQEKMSEGDRELLRNASLVVLGRLEDDGSIIQRFVELFGEEAYERLKSELM”, -0.865.
Turning to “HMDLDIGSVLQASRGEKKISLRQLAERTGLTASMLSQIERNLVNPSINTLKVIAAALEIPMYKFFMG”, the “soluble fraction (log2)” value is -0.583.
For “HMDLEMLEVEDTIKDLLSQHQKINAIKYYRNYMSEQLNVDMGLRQAKDTIDAIGRGATVDLSVGY” the value was -0.783; for “HMDLIEVLAQDTIKKIYNTYVAYKNKVDVFYVAFSGGKDSIVTLDLVQRTLPHNEFKVLFGDTGM”, -0.48.
The same measure for “HMDLIFQKGDLVFSTEHNQRGIFYEYLEQGQAKISIEKQFFVVAARRLQLLTKREVLYPAGYDLDQLFV”: -1.05.
For “HMDLKENQHILQISNKGVQMGNVLKDLIIQTLNITNGNQIKAAKLLAISRAKLRYRIEQLGINISGKNI” the value was 0.0187; for “HMDLKHNQITMRELLRNKQAYLLLYKEFPMFMTPAILQNIRPLTLQQIIQMVRPYISRPKLNMLLEQLENI”, 0.22; for “HMDLMQRVIIVRPVMQGDYLTRAHLGLQTLSRNGGGGFTDIDDLVGRRAKKSLRAGLVVHNRHL”, 0.124.
In the case of “HMDLPAEFSKPELETLFKRGKQSGELSLTEVRDALEAAQLPNKKTQTKVLKVLSDNAIHVLMDG”, the “soluble fraction (log2)” value amounted to 0.0785.
With “HMDLPDFTSRERDILARVVQGDSNERIAASLGVSVSTVKTHIGNILRKTGQTNRVRLIVWATRHL”, the “soluble fraction (log2)” value was -0.37.
Turning to “HMDLPDYYFRVRENGAVVFRVGTENRQRRIEMVEIATVNVKNGNIKPHGEVDLTKADRLAIGEWLAARQAQ”, the “soluble fraction (log2)” value is -0.27.
Regarding “HMDLPRQSQYQALVVSYARRAGIDEAEEDLLAAFEVWRMRHNHDLAGGRTARDFILAYLPQYQRHKE”, the “soluble fraction (log2)” value was -0.59.
“HMDLQNIQNQLNTEFAKSDTRIIFWFDDKGEYEDEVSELQLGDVKLHILDGLNWFYSKYLLNEA”: the “soluble fraction (log2)” value was -0.467.
For “HMDLRAPKPIKEMGEEYIKLYQYLRKGESENIVMSKMNISLDDYDYMRSEIEDKLSLYNMLDLLRKP”, the “soluble fraction (log2)” value was found to be 0.0296.
For the sequence “HMDLRVKRTNKMIMEAFIHLVEQKGYDNITVQEIADEAMINRATFYAHFKDKQDLYDHIFKQAI”, the “soluble fraction (log2)” value was -1.33.
The same measure for “HMDLSPEQAELAAIRGELGIKIDDYALALNIPRDRLTSYLYGRANVPAEVLISARELRYASSA”: -0.128.
The same measure for “HMDMQNIQKGLSAIEPGRTFSREEYYAAIQNGSEMLLKEDALAYSLRKSLSDGDIVRVSWNQYAIP”: -0.909; for “HMDMTPEEFLAWARHKPFGDPFPKTQTVTFLVPLLGVSRTNIFTWISGKVNPSKTSLLLMEALKRENR”: -0.444.
The same measure for “HMDNEIEQIVEDLNLTLSSLKYTKNQIESILPLIIKEIDDFKKKEKNISFENLLKLAMNHLDND”: -1.16.
For “HMDNEIRIPLPSLQRDGFSIGTREDDGSQLVRIMSAGSFGGMIRSFRLPEGMRIEGAKWEGEIVSIRL”, the “soluble fraction (log2)” value was -0.0291.
The same measure for “HMDNEVTIAVQVNGKLRDKLIVALDTPNEKIEQLALALPKVIQNTSGLTVRKVIVIPNRLVNIVA”: 0.123; for “HMDNIKRGEMFYISRGGASYSGSEQHSDRPAVVVSNDKNNENSNVVEVVYMTTQPKTDLPTHVTVR”: -0.0773; for “HMDNLKELDEILETYGKKKGYLITILQKAQDAYGYISIDIMNRISEFTGIKVAKIYGVATFYAQFRL”: -0.651.
Regarding “HMDNPLSQQEKRILQLISLGKTNQEIADILYLSNGTVRNYISSILNKLSANNRVEAARIAEEHGW”, the “soluble fraction (log2)” value is -0.929.
As to “HMDNPNVMAQVKSLLASKGLSEQEVKERLKAKGLNIDAMSDAEIAQNRSVIEQTIAELEAEKKKAG”, the “soluble fraction (log2)” value stood at 0.287.
The same measure for “HMDNPYEVFIPNSYIGQRLDQTLASLFPQFSRSRLQNWLASGNLLVNGKIVKPKTKILGGEQINILDPYN”: 0.17; for “HMDNTFEEVKEKLLDLLKERPLTPAEVSKRMEEDKNILAQVIQYLLEEEIIKTEDGMLSKVIG”: -0.0649; for “HMDNWYIAFNSFLSQNKLTAKNVSELTGLSKPTIDSYKQGKRKPTDENMQIIKDKLGFNISEILYN”: -0.576.
For “HMDPDDEILINIMTKLLTEKQIIIKNKEIFNFLLKRINRTYEEVYNLINKMDKLSLEKKKQLTIPSIKEL” the value was -1.52; for “HMDPEEETLKNMQRMLQDSGPLKKTEFSLLAKSLGIAEKKARKLIDRGRGRFWTVESGEQKNTQLVTPIQ”, -0.261; for “HMDPERVVGQTGIVHLRIPARQHNTGKVMIEVQGSLREFDAVSEAEEIPTGTPILIVGRTEEGVFIAQPF”, -0.823.
The same measure for “HMDPGPVLISAQVLDDLEAIRRDGSSNMLDWPAVARLAEVMGMDRTAAWVRTHHREYSAGIFRGFASD”: -0.744.
As for “HMDPHEEELLRQLIRGDIAGYEVLFHKYYPTFFAFIKGMTKETVVAEDITQNIFMKVWLNRERLDAA”, the “soluble fraction (log2)” value is -0.535.
The same measure for “HMDPIATLTPREREVLSLMAEGRSNGAIAAALVVGDGAVEKHVSNIFQKLELTPAEGDHRRVLAVLRWLE”: -0.864; for “HMDPLADLFSRIRNAQMRNKKVVTSPASKLRAGILEVLAKEGYIRGYAMTQHASGKNELDIELN”: -0.0916.
The same measure for “HMDPNAITSAQVTKLQVLANEKGFAERQARLTMWAEVIGRNVGTANELTKAEAHKLIEHMDALPV”: -0.162.
Take “HMDPNFKYIIRIANSDVSGEQKLAYALTSIRGIGERTSNAIIQKLGLDSTQLAGKLTDKNVEDIESA”: the “soluble fraction (log2)” value was -0.0403.
With “HMDPPQEVWDLTRSYLDSMNRPVHGHKSPQETYLRQVKSHRLPATALWDYFMAQRFHAVHATSESAA”, the “soluble fraction (log2)” value is -0.364.
For “HMDPPYKDKNLHELLLKINNLNILKKDSVIILHRHKKQKEIFPSNFKIIEQKQYGISKIIFLTVL” the value was 0.217; for “HMDPRTSSLTPQERKVLELVGGGLTNRQIAAEMFLAEKTVKNYVSSLLAKLGFERRTQAAVFIASPAF”, -0.0756; for “HMDPSKLVEVQEPVSMKALSEGLGIKVTELIATFAFKLKIGGKNINSMLSNDEVELVALDLERNIKVV”, -0.0335.
Turning to “HMDPTEPLFVGVVTAEPYLNIREYPTTQSKDLGDLFPGMHVNVYEIVPNWYRIDDGWVASAWVKRDWGGG”, the “soluble fraction (log2)” value is -0.314.
The same measure for “HMDPTIRRGELIDAASRLFLSKGYAATSVRDILDEVGNRTASPSVFYYYFKSKEEIYQAVLRRHSE”: -0.485; for “HMDPTVSGQTGSVVREIRPGVPGEVELSVPLYGIRRWQAMADGILAEGTRVTVIQAEGVRLSVRPV”: -0.251; for “HMDPTVTFIVQVNGRVRDKITLSSDISENEAKNVALESPKITPHISGKSLSRVIFVPGKLINLVV”: 0.162.
As to “HMDPVATLTPREREVLELMAEGRTNAGIAEAMVVTEGAVEKHIQRIFAKLGLHADGGVHRRVAAVLALLG”, the “soluble fraction (log2)” value is -0.872.
As for “HMDQDIILHKVQPGDTLSKILLHYHSHQDRNKLQGLIAESMTANPFIKNPDLIYPGQLIQVPVPA”, the “soluble fraction (log2)” value was found to be 0.124.
For “HMDQFMLQSAWLRAVQHVMKHTDDVGTQFAEEARRMHYGEADERPIRGQATSDEARALHDEGIEVMALPI” the value was -0.192; for “HMDQILIHLKEGIDVTDVQPMLKALDLNVRMFNRDKNIIVISVLNRELDAIPQTIAALRPWEELFDSA”, -0.184; for “HMDQNVSVPKLAGLQVEEANAILKSKGLHIEIIDSIYQKDAVPGAIIEQVPEENSKVKKGRAIYVSVYAK”, 0.0139.
As for “HMDQVYYDLKSLIELLPADQMEVLKMRYFEELSFKKIAQKIDVSINTALGRMRYALINLRALSKKHHID”, the “soluble fraction (log2)” value was -1.02.
For “HMDRDMGSMTDFENVRDAYLTGKVWNVGDLIEANGITGIIIRKGTNYVSYNDGDGKVHKAWLHDITL” the value was -0.98; for “HMDREILWTNYVAARKQEFIASSIDTIGAEYLDNRRFWDTQFEREWTIIAERLASGFGLTDDILSIVGSDF”, -2.71; for “HMDRETEEYELIRAKLEWLYQKQTGTIRNQTAKILHHLEIAKEEGNYYLYLKIKEEAKQWLVQASMYLD”, -0.725.
For “HMDRGDVTREALIKAAIEIFGRDGFHAASTRAIAERAGANQALIGYHFRGKLGLYHATFEYIIGKI” the value was -0.474; for “HMDRMINYSPIVAKVPQDDYTTKVYNIPIYSELTVVDKISEPEPLIAPIYRFKYITPEDEEIEFDIPV”, -0.39; for “HMDRMMQPETWGRVYQWITDDPQVPDREEVLTLIKYHYGDFGKLMKLLHRLNEGKAWTYLSEHIFPRM”, -0.698.
The same measure for “HMDRNEFVSTLRAALTGAVSPAIVEDNVRYYQNYISQEIASGKSEKEVLDGLGDPRLIARTIIDT”: 0.14.
Regarding “HMDRNIVYSDFIRSVNQGQVSEVLVQGDNIRGRYLNGKVFQTFAPKDPSLISTLRNKGVRISAEPA”, the “soluble fraction (log2)” value was -0.022.
Turning to “HMDRRSTTLQDIYTRIDAEEISEALELIPKLGEIEFEQNRAEIAEAAGVRPAVLDKLRKQAAKQENNKK”, the “soluble fraction (log2)” value is -0.216.
“HMDRSAQVLFLEHARSRLPQRIQWAEELAELLSIGIDSAYRRIRGETALTFNEAVSVSRKYDISLDYLFK”: the “soluble fraction (log2)” value was -1.4.
On to “HMDRSKREKEQQELMLKVQQIFDDNQQRFGAEKIRTVLAQNGVRVSVKRVSAIMQELNLRSIR”, for which the “soluble fraction (log2)” value amounted to 0.169.
For “HMDRVMPVPEALIGMRFDIAVSRMLGVSRSQAAAYIDRGQVSIAGRGSQRSAQKSEKLVQGDSIEVAIA” the value was 0.186; for “HMDRWSLLTLTTLAGGTLRFTELKRAIGDISQRMLAQTLRTLEREGYVSRKVYATIPPKVEYRLTALGQSL”, ≥ 0.43.
Take “HMDRYAVRAEELAAALAQYHRHVGVYPENLEDLIAPTGPRGYRGPYLSELPTNPSTSKPDWGYDPATGRVS”: the “soluble fraction (log2)” value turned out to be 0.159.
With “HMDSAFVSDIRDAFDEAGVDSYRFFGTHSFKRGGVQLYRLLGVSDQEIKERGHWQTFSAYFAYVQA”, the “soluble fraction (log2)” value is -0.303.
The same measure for “HMDSESGAIIRRAVAQLAPKFRSTIVLRLIEGYSTEETAQILQLPVGTVLSRLARAKVQLMNLLTPYKEL”: -0.0277.
